Assays:
[1] = molecular target: intracellular antigens (TNT) in paraformaldehyde fixed Raji lymphoma cells; test: fixed-cell radioimmunoassay: 125I-labeled fusion protein on paraformaldehyde-fixed Raji lymphoma cells, Scatchard analysis, Ka = -(slope/n) with n = 2
[2] = molecular target: intracellular antigens (TNT) in paraformaldehyde fixed Raji lymphoma cells; test: fixed-cell radioimmunoassay on Raji cells, compared with the literature value for NHS76

- Ka [1]: 2.15e+08 M⁻¹
- affinity relative to parental NHS76 (fold of parental NHS76) [2]: 0.14
Substance: B7.1/NHS76 fusion protein (from UniProt P33681 35-242)

Reference: patent US7696175
